The target of the experiment is T1, human Tim-3 (T cell immunoglobulin mucin domain-containing protein 3) (Homo sapiens, UniProt Q8TDQ0).
T1 construct: human Tim-3 (HAVCR2), injected as the SPR analyte; I surmise the monomeric IgV domain; also called hTim3; hTim-3
The experiment in a line: SPR; Biacore T200, 37°C; antibody captured on a CM4 chip with preimmobilized anti-human IgG Fc pAb; human Tim-3 injected as analyte, single-cycle kinetics, 5-membered 5-fold dilution series, 1 uM top; 10 mM HEPES, 150 mM NaCl, 0.05% Tween 20, pH 7.4, 1 g/L BSA; 1:1 Langmuir model with mass transport. The note with it: both partners purified.

T1 sequence (Q8TDQ0 22-301): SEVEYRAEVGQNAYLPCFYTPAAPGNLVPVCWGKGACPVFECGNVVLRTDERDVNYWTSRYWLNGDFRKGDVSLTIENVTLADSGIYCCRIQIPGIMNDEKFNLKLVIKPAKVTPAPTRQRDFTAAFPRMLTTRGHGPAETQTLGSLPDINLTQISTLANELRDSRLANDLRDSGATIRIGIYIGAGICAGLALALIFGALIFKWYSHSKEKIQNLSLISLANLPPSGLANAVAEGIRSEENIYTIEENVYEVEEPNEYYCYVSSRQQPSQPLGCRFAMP

B1: aTim-3.18 monoclonal antibody (antibody, V domains shown)
VH: QLQLQESGPGLVKPSETLSLTCTVSGGSISSRSYYWGWIRQPPGKGLEWIGSIYYSGFTYYQPSLKSRVTISVDTSKNQFSLKLSSVTAADTAVYYCATGGPYGDYAHWFEPWGQGTLVTVSS
VL: not shown
notes: Whole mAb from Bristol Myers Squibb, captured in SPR through an anti-human IgG Fc antibody; The isotype-matched control was an IgG4, so I surmise the mAb is a human IgG4; source: Expi293, transient transfection, purified (Protein A MabSelect SuRe)
On to B1, for which the dissociation constant Kd amounted to 1.8 nM, the dissociation rate constant (koff) was 0.0046 s⁻¹ and the on-rate (kon) stood at 2.6e+06 M⁻¹ s⁻¹.

These data come from PMC9057587 (The Journal of Clinical Investigation, 2022).
